The supplement of paper PMC12764529
± gives the half width of the 95% confidence interval.

Experiments:
[1] = folding stability dG unfold from trypsin proteolysis; higher = more stable
In short: (§1)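 Designed mini-proteins (under 80 residues, no cysteine) in a PA-tagged cDNA display construct were digested with trypsin and chymotrypsin. Each protease was used at 11 concentrations (threefold dilutions) plus a no-protease condition, followed by sequencing. K50 was inferred by Bayesian fitting of sequencing counts, and unfolding free energy was derived against a sequence-predicted unfolded-state K50 and a shared folded-state K50, per protease or combined. Only designs with AlphaFold2 dimer inter-PAE above 15 were kept.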

[2] = folding stability dG unfold (combined trypsin and chymotrypsin); higher = more stable
In short: as §1

[3] = folding stability dG unfold from chymotrypsin proteolysis; higher = more stable
In short: as §1

| Sequence | folding stability dG unfold [1] [kcal/mol] | folding stability dG unfold [2] [kcal/mol] | folding stability dG unfold [3] [kcal/mol] |
| --- | --- | --- | --- |
| SMITLELTDPATGAKYTLTIDPSTGKAKVTRTPPTGPPVSGTGTIEGNTLTITLYEPSGKPLATLTLPLPSA [r9_665_JUSTAS] | 3.89 ± 0.11 | 5.6 ± 0.13 | 5.53 ± 0.1 |
| SMKEGIEAAIDELKEALEKGEGEVRVVLRFEGFVLEITIKPKGYKIEDIEIEPLPDDIPFIREREEVPPESA [r9_308_TrMRF] | 1.23 ± 0.051 | 1.52 ± 0.24 | 1.58 ± 0.19 |
| SMKEKALEKAKEKAEEIKKKYSNVKVKVEVKVEITPKGEIKITYKVVIEKPEKEKPYWVKYPNGPWKKIGSA [r9_82_JUSTAS] | 1.2 ± 0.24 | 1.5 ± 0.55 | 1.86 ± 0.54 |
| SMKELVKRIAERFPNFKVKIKPEKTGGKKYRTVRIENPDSGRDMEIVFTKNGDIQIEMPNGRRIPLEDILSA [r9_1176_TrROS] | 1.46 ± 0.018 | 1.36 ± 0.059 | 1.1 ± 0.077 |
| SMKEVEKREFPDGTTVTFSKSSSPVITIKVTTYSPVPNTSELSSSESTYTFPLPPGKPLTLEEVLKKVLESA [r9_614_JUSTAS] | 0.54 ± 0.035 | 1.02 ± 0.13 | 1.38 ± 0.21 |
| SMKFTITLSNPVDGTTETIPLDVPLEELVKIIKEAHEKGGTVTITGLPEELAKEIAEKSGLDVSINPAPGSA [r9_1207_JUSTAS] | 3.13 ± 0.14 | 2.85 ± 0.14 | 2.57 ± 0.053 |
| SMKIEFLDVKEDGTIVIRLTLLRPDGKPPTKEEAAERAKEIAEILKPYFPDAEFTIEFDPESGEATIVIDSA [r9_485_TrMRF] | 4.66 ± 0.57 | 4.83 ± 0.33 | 4.7 ± 0.15 |
| SMKIIIEIEVEPGKTEEEIKEEAEALAKELAKKLGLPKEAKVKIEKVKLEDGKLRYIITIEVDGKTIEFESA [r9_776_TrROS_Hall] | 3.72 ± 0.29 | 3.75 ± 0.24 | 3.63 ± 0.064 |
| SMKIKSIKIEPIRIGDEEYFLIPIEVDGEEIPPEEVKRLVEELFEKLGLPLDPVLLEDPESDIVLVLARGSA [r9_717_TrMRF] | 1.82 ± 0.053 | 1.48 ± 0.16 | 1.34 ± 0.11 |
| SMKITATETPVGDKTTVTITVTIDPKEFPNKPPTEEFYKKIAEELMKKLGLKTYNISKTSSNTYTITIVDSA [r9_883_JUSTAS] | 2.42 ± 0.061 | 2.5 ± 0.049 | 2.5 ± 0.025 |
| SMKITIVENEDGSLKIKVYFKDTGKVVEKTFEKGETIEEQVKKLAEELEKELGLEVVDVEIVKLPPPEKPSA [r9_1205_TrROS_Hall] | 2.63 ± 0.23 | 3.57 ± 0.12 | 3.74 ± 0.096 |
| SMKITLEKGNYKIEIYKHPETGEIIAKVYDKNGKLVAVAHIKIEVEPDKDGKKIIKKIEIHVHILKEDPKSA [r9_262_TrMRF] | 2.58 ± 0.22 | 3.02 ± 0.31 | 3.77 ± 0.11 |
| SMKKILIIVPKEMSEEEVEALVKELLEKLGLPEGAEVEILTEEELEKNPELKKKLEEAEKKGADLVIIIPSA [r9_1147_TrROS_Hall] | 3.39 ± 0.32 | 3.12 ± 0.32 | 3 ± 0.2 |
| SMKKIVLIYPESVSPEEAEKIAEEILKKLGLKKGSPVTILPLSEYESNPEMRARIEEAKKKGADIIIEVKSA [r9_1147_JUSTAS] | 2.91 ± 0.15 | 2.78 ± 0.17 | 2.8 ± 0.1 |
| SMKKNTLTLTVKVKVTVTVVKKKKDGKEEVVKKETVEVTVKVTFLSKEELEKLKKELEKLKKELEELKKKSA [r9_1192_TrROS_Hall] | 2.72 ± 0.27 | 3.39 ± 0.75 | 4.7 ± 0.27 |
| SMKKNYKIKIEIIDIKIYNKNIPKNKPKYITIKAKITIYYKNKPYKYTIEIKYKIYNGKIYIIGSKIKPESA [r9_270_TrMRF] | 3.36 ± 0.1 | 3.66 ± 0.11 | 3.761 ± 0.025 |
| SMKKPIDLIKKLGYTLTSVTKLPNGTTLITFEHPDSTVTVTVNPDGNIKITTTNPKNGTTTTTTIPVNKLSA [r9_2_JUSTAS] | 1.95 ± 0.08 | 2.08 ± 0.15 | 2.31 ± 0.099 |
| SMKMSPEEKLKELAKELAEKLEEETGKKVKVRVTVEYNGKTFEIEIEEGETIEDIRNKFPGLKIKVEIEPSA [r9_513_TrROS_Hall] | 1.34 ± 0.17 | 1.08 ± 0.41 | 0.00992 ± 0.22 |

| Sequence | folding stability dG unfold [1] [kcal/mol] | folding stability dG unfold [2] [kcal/mol] | folding stability dG unfold [3] [kcal/mol] |
| --- | --- | --- | --- |
| SMKPGAEITIEPFPDGMYKITLPDGRERIFSPNGIAIEITPNKIKIEMFHPGKPIMEMEVEIPPPDPNDPSA [r9_901_TrROS] | 0.912 ± 0.19 | 0.987 ± 0.43 | 0.771 ± 0.16 |
| SMKPGDTVIVKIEIEKKVDGKTVKKTIEKEIKIKPGETVEIELKGLPKGAKVRVEIFNADGKLIEEKELPSA [r9_478_TrROS_Hall] | 2.23 ± 0.075 | 1.8 ± 0.08 | 1.46 ± 0.042 |
| SMKPGEKLEIEVEIKVEEEDEEKRKKALEEAEEKLRELFEKLGLKDIKKVEVVEVEKLPDGTVKVKIRIDSA [r9_754_TrROS_Hall] | 2.39 ± 0.18 | 1.71 ± 0.24 | 1.32 ± 0.11 |
| SMKPGELVLVTETETRTFTVTPEDLPPGWKVKEVKVTVTRVALFRVTPDGRVELVEEVTSVEIEVTLEPESA [r9_747_TrROS_Hall] | 4.39 ± 0.42 | 4.52 ± 0.22 | 4.54 ± 0.1 |
| SMKPGETVRVTFKTKDGSKIEIEFKNGKPVRITVYNKNGEKVKEIEVTLDELKELAEKLGIEEIVEVEKVSA [r9_1107_TrROS_Hall] | 2.76 ± 0.19 | 3.26 ± 0.35 | 3.44 ± 0.077 |
| SMKTITIPADTLSPEEIEALLKELGFDPEKIKISTEGDKLVVTVPDMIVFLTPPPPVPTVPPTNPERLAALS [r1_57_JUSTAS] | 0.643 ± 0.036 | 0.31 ± 0.15 | -0.141 ± 0.36 |
| SMKTKTVTLDLSPEDPEAARAAVEAAIAEARAADPDTEVTVTVTISPEHPELLAEIEALAAERGVSLVLGSA [r9_1202_JUSTAS] | 2.74 ± 0.058 | 2.81 ± 0.097 | 2.84 ± 0.06 |
| SMKTVTLNFPSLSEEEVRALAEELEATGRYRVEKIDSSTPNIKVTVLEEPPEPRPPPPPALVRDADARAASA [r9_830_JUSTAS] | 1.08 ± 0.088 | 1.4 ± 0.12 | 1.83 ± 0.12 |
| SMKVERERRTIERTLPDGRKVKVEIDLFRPEDGKPWALIKITVTDENGVPTEREILAPAELAEKVIEELFSA [r9_189_TrMRF] | 2.34 ± 0.055 | 2.08 ± 0.069 | 1.78 ± 0.039 |
| SMKVIIIERPDESGVPVVIVLPEEEALELYRKLFNVPMSVEEFAEKLKELNPNVKVEVVPLEEVSEEVLLSA [r9_1085_JUSTAS] | 2.23 ± 0.086 | 2.35 ± 0.18 | 2.28 ± 0.058 |
| SMKVKPGEKIKVTVLALFYDKETKKLYLVKAEVEATVELDEDGNLTVKVEVKKVEVVEEMPLDELKELLKSA [r9_423_TrROS_Hall] | 2.29 ± 0.14 | 2.97 ± 0.18 | 3.4 ± 0.067 |
| SMKVVKLYTDPEGRVVIEITLPKPDGTPVSEEEAKAIADEIAAELKPKYPNATFEITYDPKTGVVTITIGSA [r9_485_JUSTAS] | 3.49 ± 0.13 | 2.97 ± 0.1 | 2.51 ± 0.053 |
| SMLKPGDIVKLPNGPIYVVKKLTISYDPSTSPPKLELELVPLGEPKPVLKEYTLPDGSTKTEIGYYWTGPSA [r9_914_TrMRF] | 0.922 ± 0.031 | 0.98 ± 0.12 | 0.995 ± 0.11 |
| SMLNPDDPSVPERLVLVIPVPEEAVENGDFEVVRAKVEEAAEELEPLGWRVVSVEFDTETKEARLVLERPSA [r9_75_TrMRF] | 3.76 ± 0.07 | 3.617 ± 0.032 | 3.506 ± 0.021 |
| SMLPLLPPRRLLIEVVFPLPEDATPEQLELAERAAEALADVLEALGFKDVRVLVEPTDPGDVLILAEVEASA [r9_865_TrMRF] | 1.49 ± 0.023 | 1.82 ± 0.074 | 1.97 ± 0.034 |
| SMLTITDENGNTITLPAAGEPVTLTVEIEVDGYTVTVEITFDADTKKITIKVEVTNPNGEKQTFTFTFDLSA [r9_1073_TrROS_Hall] | 2.92 ± 0.12 | 3.84 ± 0.16 | 4.23 ± 0.083 |
| SMLVSVTFPLTLEPEEGDHTVRIYATAPDGSSLGEVTAPVKAVGDKVEFEVTATFPLPEGAVIERIETEPSA [r9_292_TrMRF] | 0.681 ± 0.025 | 0.869 ± 0.084 | 0.857 ± 0.12 |
| SMPAEMSPEEVREAVRALVEEALAANPGEPVTVPIEEIRAALPGYSPEVLREVLGLTEEEIAAGPVTLRLSA [r9_525_JUSTAS] | 0.885 ± 0.042 | 0.483 ± 0.12 | -0.45 ± 0.35 |
